What was measured:
[1] = target: C-C chemokine receptor type 5 (CCR5) with a C-terminal 1D4 epitope tag (human) (UniProt P51681)
[2] = target: C-C chemokine receptor type 5 (CCR5) with a C-terminal 1D4 epitope tag (human) (UniProt P51681); remark: listed apart in the source

Chain of UniProt P51681 (P51681 whole entry): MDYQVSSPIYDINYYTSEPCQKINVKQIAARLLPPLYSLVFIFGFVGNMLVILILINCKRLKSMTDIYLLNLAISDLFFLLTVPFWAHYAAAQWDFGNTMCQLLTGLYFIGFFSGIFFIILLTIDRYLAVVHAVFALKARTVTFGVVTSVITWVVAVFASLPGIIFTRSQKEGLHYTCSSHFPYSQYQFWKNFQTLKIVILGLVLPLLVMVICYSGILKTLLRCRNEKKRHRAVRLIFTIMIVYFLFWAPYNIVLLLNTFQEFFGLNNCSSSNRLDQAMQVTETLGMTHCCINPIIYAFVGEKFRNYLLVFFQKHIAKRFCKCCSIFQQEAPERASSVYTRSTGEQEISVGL
Chain of PSC-RANTES (P13501 24-91): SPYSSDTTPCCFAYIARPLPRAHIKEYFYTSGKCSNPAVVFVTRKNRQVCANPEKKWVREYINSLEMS

increase in intracellular Ca2+ (FLIPR Calcium 6 dye, mean RFU) of CCR5-transfected HEK293T cells on injection of 100 nM RANTES; buffer pre-injection, no inhibitor [1] [RFU] | increase in intracellular Ca2+ (FLIPR Calcium 6 dye, mean RFU) of CCR5-transfected HEK293T cells on injection of 100 nM PSC-RANTES; no ATP pre-stimulation, no inhibitor [2] [RFU] | Substance
3830 |  | regulated on activation, normal T cell expressed and secreted (RANTES) (from UniProt P13501 24-91) (ligand)
 | 9900 | PSC-RANTES (from UniProt P13501 24-91) (ligand)
